The results in this text go back to article doi:10.1101/197673.

This experiment concerns the target TM-JM peptide of EGFR labelled at the N-terminus with Cy3 or Cy5. Kind of experiment: FRET or BRET. (In general: Bioluminescence resonance energy transfer reports proximity on the nanometre scale.)

“TM-JM peptide of EGFR labelled at the N-terminus with Cy3 or Cy5” displayed a percent of peptide dimers with a high FRET efficiency state in the trajectories of 95%.
